This is an account of results in patent US20260274959A1 (FUJIAN MEDICAL UNIVERSITY, published 2026).

Test [1] has as its target T1, Human B7-H4 protein (Sino Biological, Cat #10738-H08H-100) (human, UniProt Q7Z7D3 25-258).
T1 construct: Bought protein; also called hB7-H4 protein
T1 sequence: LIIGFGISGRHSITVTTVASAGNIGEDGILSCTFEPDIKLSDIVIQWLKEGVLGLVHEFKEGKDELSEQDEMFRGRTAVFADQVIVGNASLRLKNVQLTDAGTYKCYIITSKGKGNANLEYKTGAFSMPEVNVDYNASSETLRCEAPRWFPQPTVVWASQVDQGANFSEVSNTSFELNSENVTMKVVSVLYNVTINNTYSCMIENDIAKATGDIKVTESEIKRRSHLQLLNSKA
Kind of test: ELISA, human B7-H4 protein coated at 2 µg/mL, scFv titrated from 20 to 0.05 µg/mL. As to the method: 4.2 Measurement of Affinity of the Npsc-A8 scFv [0142] (1) ELISA plate was placed in a clean bench, and activated under UV irradiation for more than 30 mins. Human B7-H4 protein (Sinobiological, a catalog number: 10738-HO8H-100) was coated onto wells of the ELISA plate overnight at 4° C. at 2 μg/mL. The Npsc-A8 single-chain antibody was diluted to 20 μg/mL, 10 μg/mL, 7.5 μg/mL, 5 μg/mL, 2.5 μg/mL, 1 μg/mL, 0.5 μg/mL, 0.25 μg/mL, 0.1 μg/mL, and 0.05 μg/mL, which were respectively added to wells in 100 μL per well. [0143] (2) The remaining steps were conducted according to steps (7) to (14) in Example 3. [0144] (3) The OD450 nm value was measured. A standard curve was plotted, and the EC₅₀ value was obtained.

The target in test [2] is T2, mouse B7-H4 on cells (MC38-mH4 and E.G7-OVA-mH4 overexpressing) (mouse, UniProt Q7TSP5 25-257).
T2 construct: whole, on cells; The species of the overexpressed protein is read from the label mH4
T2 sequence (looked up): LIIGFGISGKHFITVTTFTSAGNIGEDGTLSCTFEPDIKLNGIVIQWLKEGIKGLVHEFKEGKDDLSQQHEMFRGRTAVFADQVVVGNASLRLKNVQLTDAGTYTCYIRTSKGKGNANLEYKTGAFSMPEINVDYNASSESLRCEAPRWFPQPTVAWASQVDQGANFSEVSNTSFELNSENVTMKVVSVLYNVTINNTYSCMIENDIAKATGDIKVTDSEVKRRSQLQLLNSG
Description: flow cytometry on MC38-mH4 cells. As to the method:
(1) Resuspension of cells: After trypsin digestion, cells were centrifuged, the supernatant was discarded, and the cells were resuspended in PBS containing 1% (v/v) FBS and counted to adjust the concentration to 2×10⁶ cells/mL. [0126] (2) Setting controls: For a blank control, an isotype control, and samples to be tested, 100 μL of the resuspended cells in step (1) was added to each tube, so that each tube contains 2×10⁵ cells. [0127] […] A negative control tube was added with 50 μL of negative single-chain antibody, which was the monoclonal single-chain antibody that was negative in ELISA in Example 3. Tubes to be tested were respectively added with 50 μL of antibody candidates (i.e., Npsc-A8, Npsc-E7, Npsc-G10). The mixture in tubes was fully mixed, and incubated at 4° C. for 30 mins. During the incubation, the tubes were shaken every 10 mins to allow the cells to be fully reacted with the antibodies. [0128] (4) Washing of cells: An appropriate amount of PBS containing 1% (v/v) FBS was added to each tube. The tubes were centrifuged at 2000 rpm for 3 mins, and the supernatant was discarded. [0129] (5) Resuspension of cells: The cells in each tube were resuspended in 100 μL of PBS containing 1% FBS. [0130] […]
A general note: In flow cytometry, cells or beads pass a laser one at a time.

The target in test [3] is T2, mouse B7-H4 on cells (MC38-mH4 and …). Description: flow cytometry on MC38-mH4 and E.G7-OVA-mH4 cells; the filing adds that at the same concentration it binds human tumor cells at a higher affinity than mouse tumor cells. Here is the method: A negative control tube was added with 50 μL of negative single-chain antibody, which was the monoclonal single-chain antibody that was negative in ELISA in Example 3. Tubes to be tested were respectively added with 50 μL of antibody candidates (i.e., Npsc-A8, Npsc-E7, Npsc-G10). The mixture in tubes was fully mixed, and incubated at 4° C. for 30 mins. During the incubation, the tubes were shaken every 10 mins to allow the cells to be fully reacted with the antibodies. [0128] (4) Washing of cells: An appropriate amount of PBS containing 1% (v/v) FBS was added to each tube. The tubes were centrifuged at 2000 rpm for 3 mins, and the supernatant was discarded. [0129] (5) Resuspension of cells: The cells in each tube were resuspended in 100 μL of PBS containing 1% FBS. [0130] (6) Incubation with secondary antibody: An appropriate amount of fluorescently labeled secondary antibody was added to the isotype control tube and the test tubes, mixed thoroughly, and incubated at 4° C. in the dark for 30 mins. During the incubation, the tubes were shaken every 10 mins. [0131] (7) Washing of cells: 2 mL PBS was added to each tube, the tubes were centrifuged at 2000 rpm for 3 mins, and the supernatant was discarded. This process was conducted twice. [0132] (8) On-machine testing: Cells in each tube were resuspended in 200 μL PBS. […]

Test [4] addresses T3, mouse B7-H4 IgC-like domain protein (from a laboratory of Fujian Medical University) (mouse, UniProt Q7TSP5 153-241, limits assumed).
T3 construct: domain: IgC-like domain
T3 sequence (looked up): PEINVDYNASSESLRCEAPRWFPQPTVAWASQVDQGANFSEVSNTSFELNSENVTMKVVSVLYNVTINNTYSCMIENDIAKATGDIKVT
Kind of test: ELISA, protein coated at 2 µg/mL. Here is the method: (1) A 96-well ELISA plate was placed in a clean bench, and activated under UV irradiation for more than 30 mins. The human B7-H4 protein (Sinobiological, a catalog number: 10738-HO8H-100), mouse B7-H4 protein (from a laboratory of Fujian Medical University), mouse B7-H4 IgV-like domain protein (from a laboratory of Fujian Medical University), and mouse B7-H4 IgC-like domain protein (from a laboratory of Fujian Medical University) were respectively coated onto wells of the 96-well ELISA plate at a concentration of 2 μg/mL, and incubated at 4° C. overnight. The Npsc-A8 full-length antibody protein obtained in Example 5 was diluted to 10 μg/mL with PBS buffer, and added to wells in 100 μL per well. [0165] (2) The remaining steps were conducted according to steps (6) to (13) in Example 3. 6H3 and 8H4 were used as control antibodies. 6H3 is a mouse anti-human B7-H4 IgC domain antibody, referring to patent application publication number CN 104955475 A. 8H4 is a hamster anti-human B7-H4 IgV domain antibody, referring to DOI: 10.1016/s1074-7613 (03) 00152-3. [0166] (3) OD450 nm value was measured.
Background: ELISA stands for enzyme-linked immunosorbent assay.

B1: Npsc-A8 single-chain antibody (scFv, V domains shown)
VH: QVQLQESGGGLMQVGGSLRLSCTASGFVFGDYGMNWVRQAPGKGLEWVSLIDTYGASTFYADSVKGRFTISRDNSKQTVFLQMDGLRADDTAMYFCAKPILMFPAFDLWGPGTMVTVSS
VL: DVVMTQSPSSLSASVGDRVTITCRASQGIRNDLAWYQKKPGKAPKRLIYAASSLQSGVPSRFSGSGYGAEFSLTISSLQPEDFATYFCLHHSQYPWTFGQGTKVDIK
notes: Soluble scFv from a phage display human natural scFv library; also called Npsc-A8 scFv; not shown: The scFv linker between the two variable domains, the domain order, and the tag detected with the anti-HA-tag antibody
In test [1], B1 had an EC50 of 2.02 µg/mL. Also, the binding result in test [2] was “binds”.

B2: Npsc-A8 full-length antibody (antibody, V domains shown)
VH: B1 VH
VL: DVVMTQSPSSLSASVGDRVTITCRASQGIRNDLAWYQKKPGKAPKRLIYAASSLQSGVPSRFSGSGYGAEFSLTISSLQPEDFATYFCLHHSQYPWTFGQGTKVDIKR
notes: also called Npsc-A8 antibody
As to B2, the binding result is listed as “binds” in test [3] and “no binding (tested: 10 µg/mL)” in test [4].

A word on the EC50: it is the midpoint of the concentration-response curve. Low readings indicate a more potent agent, high ones a less potent agent.
